Values quoted from earlier work as cited in article PMC12060137.

Biological target: TfR1 (Homo sapiens) (UniProt P02786)
Sequence (P02786 89-760): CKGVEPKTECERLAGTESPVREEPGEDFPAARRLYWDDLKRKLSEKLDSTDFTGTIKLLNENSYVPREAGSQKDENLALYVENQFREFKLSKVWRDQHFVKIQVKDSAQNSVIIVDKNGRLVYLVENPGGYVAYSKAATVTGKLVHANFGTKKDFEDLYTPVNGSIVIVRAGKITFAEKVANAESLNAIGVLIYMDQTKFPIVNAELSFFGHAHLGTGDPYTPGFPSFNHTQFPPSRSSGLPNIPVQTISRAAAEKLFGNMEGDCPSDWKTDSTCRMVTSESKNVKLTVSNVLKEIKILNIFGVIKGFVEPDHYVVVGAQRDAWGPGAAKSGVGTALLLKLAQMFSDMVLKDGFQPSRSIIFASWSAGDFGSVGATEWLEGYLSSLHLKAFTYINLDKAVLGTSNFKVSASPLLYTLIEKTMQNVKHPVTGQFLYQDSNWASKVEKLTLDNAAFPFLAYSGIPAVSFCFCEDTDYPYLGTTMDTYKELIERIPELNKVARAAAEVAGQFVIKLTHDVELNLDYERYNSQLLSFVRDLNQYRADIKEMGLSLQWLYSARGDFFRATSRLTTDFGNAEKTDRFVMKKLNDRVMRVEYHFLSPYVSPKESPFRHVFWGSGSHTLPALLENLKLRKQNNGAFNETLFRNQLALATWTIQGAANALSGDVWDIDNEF

Sequence of HFt-W4 ferritin nanoparticle (P02794 2-183): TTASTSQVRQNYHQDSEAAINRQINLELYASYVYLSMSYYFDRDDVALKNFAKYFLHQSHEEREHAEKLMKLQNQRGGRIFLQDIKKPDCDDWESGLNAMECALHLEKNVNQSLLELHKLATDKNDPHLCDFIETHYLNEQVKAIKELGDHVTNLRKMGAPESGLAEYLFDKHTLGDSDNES

For “HFt-W4 ferritin nanoparticle (from UniProt P02794)”, the Kd is listed as 25 nM.
